This is an account of results in US6887471.

In test [1] the target is B7 antigen (B7/BB-1, B7-1) on the cell surface (human) (UniProt P33681). The experiment in a line: cell-based or functional assay.
Test [2] deals with B7 Ig fusion protein (human) [IgG part: P01857]. The experiment in a line: solid phase competition: 125I-B7 Ig binding to immobilized CTLA4 Ig.
The target in a further test is T1, B7 Ig fusion protein (human, UniProt P01857-1 99-330 = IgG part, limits assumed, 125I label in the solid phase binding assays).
T1 construct: domain: hinge, CH2 and CH3 regions; Made as in Linsley et al. 1991; also called B7IgCγ1
The experiment in a line: FACS, indirect immunostaining of transfected COS cells. (In flow cytometry, cells or beads pass a laser one at a time.)

As usually defined, the IC50 is the concentration needed to halve the response being measured. A high value points to lower potency.

In test [1], “murine monoclonal antibody BB-1 (anti-B7 antigen)” registered an inhibition of Th-induced IgM production of 65%. The molecule further yielded an IC50 in test [2] of 22 nM.

B1: CD7 expressed on transfected COS cells (receptor, UniProt P09564 26-240, looked up)
chain: AQEVQQSPHCTTVPVGASVNITCSTSGGLRGIYLRQLGPQPQDIIYYEDGVVPTTDRRFRGRIDFSGSQDNLTITMHRLQLSDTGTYTCQAITEVNVYGSGTLVLVTEEQSQGWHRCSDAPPRASALPAPPTGSALPDPQTASALPDPPAASALPAALAVISFLLGLGLGVACVLARTQIKKLCSWRDKNSAACVVYEDMSHSRCNTLSSPNQYQ
notes: whole, on cells; Control transfectant; also called CD7-transfected COS cells
In the case of B1, the binding result with B7 Ig fusion protein is listed as “no binding (tested: 10 µg/ml)”.
